From patent US20190055291A1 (FONDATION THE ARK, published 2019)
Bridge positions count the residues as written; N and C are the ends. Square brackets hold non-standard residues; d marks the D form. R8 = C=CCCCCCC[C@@](C)(N)C(=O)O; S5 = C=CCCC[C@](C)(N)C(=O)O

Columns and labels:
[1] = target: RSV fusion glycoprotein F (trimeric HR1 target) on mCherry-expressing RSV virus (rHRSV-mCherry) (human RSV (rHRSV), strain ); assay: cell-based or functional assay
[2] = target: RSV fusion glycoprotein F (trimeric HR1 target) on recombinant GFP-expressing RSV virus (strain A2) (RSV (strain A2), UniProt P03420 26-574); assay: cell-based or functional assay

Row | Binder | EC50 values [µM], rHRSV-mCherry inhibition assay in HEp-2 cells [1] | EC50, block of RSV-GFP infection of A549 cells (flow cytometry) [2]
1 | FDASISQVNEKINQSLAFIRKSDELLHNVNAGKST [T118] | 6.33 µM | 
2 | YDPLVFPSDEFDASISQVNEKINQSLAFIRKSDEL [T108] |  | 20.9 µM
3 | EQSLXFIRXSDXLLHXV (X504, X508, X511 and X515 are (S)-2-(4-pentenyl)alanine (two staples); N-terminus acetylated; C-terminus amidated) [3ac] |  | 15.3 µM
4 | Ac-EKINQSL[R8]FIRKSD[S5]LLHNV-NH2 (staple 8-15) [4e] |  | > 90 µM
